Results on two substances are retold here after patent US20180134804A1.

In assay [1] the target is HLA-A0201 on T2 cells without added peptide (human). Put plainly: flow cytometry: BB7 staining of T2 cells without peptide.
Assay [2] has as its target CD3 on purified human T cells (human) (UniProt P07766). Put plainly: flow cytometry of purified human CD3 T cells, BiTE at 10 ug/ml then FITC secondary; same sample file as in FIGURE 5B.
The target is the same in assay [3]. The experiment in a line: flow cytometry of purified human CD3 T cells, BiTE at 10 ug/ml then FITC secondary; secondary alone (GA6His_F 1;100) 8.13, unstained 8.13. In general terms: In flow cytometry, cells or beads pass a laser one at a time.
For assay [4] the target is unchanged. The experiment in a line: flow cytometry of purified human CD3 T cells, BiTE at 0.1 ug/ml then FITC secondary; same sample file as in FIGURE 5B.
The target is the same in assay [5]. Put plainly: flow cytometry of purified human CD3 T cells, BiTE at 1 ug/ml then FITC secondary; same sample file as in FIGURE 5B.
For assay [6] the target is unchanged. The experiment in a line: flow cytometry of purified human CD3 T cells, BiTE at 0.1 ug/ml then FITC secondary; secondary alone (GA6His_F 1;100) 8.13, unstained 8.13.
The target is the same in assay [7]. The experiment in a line: flow cytometry of purified human CD3 T cells, BiTE at 1 ug/ml then FITC secondary; secondary alone (GA6His_F 1;100) 8.13, unstained 8.13.
The target in assay [8] is Ras10-G12V peptide/HLA-A0201 complex on peptide-pulsed T2 cells (human).
The target of assay [9] is Ras10-WT peptide/HLA-A0201 complex on peptide-pulsed T2 cells (human).

Where “and” joins values, the source holds several entries; their conditions need not be identical. Identical values can stand only once.

Chain of CD3 on purified human T cells (human) (P07766 23-207): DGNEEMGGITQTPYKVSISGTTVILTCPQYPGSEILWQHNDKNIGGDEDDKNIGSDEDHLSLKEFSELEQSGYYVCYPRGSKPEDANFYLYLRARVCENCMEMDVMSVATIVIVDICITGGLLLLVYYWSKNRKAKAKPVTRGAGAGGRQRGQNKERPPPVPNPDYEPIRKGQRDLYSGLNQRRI

For the substance BB7 (antibody), the Median:FL1-H in [1] stood at 316.
Regarding “isotype control BiTE (bispecific antibody)”, the Median:FL1-H in assay [2] came to 604; in assay [3], 604; in assay [4] it was 39.6; in assay [5], 229; in [6], 39.6; in assay [7], 229. Further, the Median:FL1-H is 11.2 and 11.4 in [8]; 10.7 and 11.2 in [9].
